Measured values published in patent publication US20210388087A1 (Chugai, published 2021).

Each binder was assayed against T1, CD3 epsilon homodimer protein (UniProt P07766 23-126) (assay: SPR, CD3 epsilon homodimer on chip, one-arm antibody as analyte;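 further: surface plasmon resonance at 25 °C with CD3 epsilon homodimer amine-coupled to a CM4 sensor chip, antibody injected as analyte, HBS-EP+ as running buffer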).
T1 construct: also called CD3 (CD3 epsilon)
T1 sequence (P07766 23-126): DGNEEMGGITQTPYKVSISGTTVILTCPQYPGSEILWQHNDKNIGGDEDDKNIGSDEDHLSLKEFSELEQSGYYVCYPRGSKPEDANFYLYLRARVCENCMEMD

Row | Binder | KD ratio (KD of CE115HA000/KD of altered form)
1 | CE115HA000 S52cF (antibody, human IgG1, kappa, L234A L235A, N297A, name in Kabat numbering, one-arm antibody) heavy: QVQLVESGGGVVQPGRSLRLSCAASGFTFSNAWMHWVRQAPGKGLEWVAQIKAKFNNYATYYAESVKGRFTISRDDSKNSLYLQMNSLKTEDTAVYYCRYVHYGAYYGVDAWGQGTTVTVSSASTKGPSVFPLAPSSKSTSGGTAALGCLVKDYFPEPVTVSWNSGALTSGVHTFPAVLQSSGLYSLSSVVTVPSSSLGTQTYICNVNHKPSNTKVDKKVEPKSCDKTHTCPPCPAPEAAGGPSVFLFPPKPKDTLMISRTPEVTCVVVDVSHEDPEVKFNWYVDGVEVHNAKTKPREEQYASTYRVVSVLTVLHQDWLNGKEYKCKVSNKALPAPIEKTISKAKGQPREPQVYTLPPSRCELTKNQVSLSCAVKGFYPSDIAVEWESNGQPENNYKTTPPVLDSDGSFFLVSKLTVDKSRWQQGNVFSCSVMHEALHNHYTQKSLSLSPDYKDDDDK EPKSSDKTHTCPPCPAPELLGGPSVFLFPPKPKDTLMISRTPEVTCVVVDVSHEDPEVKFNWYVDGVEVHNAKTKPREEQYNSTYRVVSVLTVLHQDWLNGKEYKCKVSNKALPAPIEKTISKAKGQPREPQVCTLPPSRDELTKNQVSLWCLVKGFYPSDIAVEWESNGQPENNYKTTPPVLDSDGSFFLYSKLTVDKSRWQQGNVFSCSVMHEALHNRYTQKSLSLSP light: DIVMTQSPLSLPVTPGEPASISCRSSQSLVHSNRNTYLHWYQQKPGQAPRLLIYKVSNRFSGVPDRFSGSGSGTDFTLKISRVEAEDVGVYYCGQGTQVPYTFGQGTKLEIKRTVAAPSVFIFPPSDEQLKSGTASVVCLLNNFYPREAKVQWKVDNALQSGNSQESVTEQDSKDSTYSLSSTLTLSKADYEKHKVYACEVTHQGLSSPVTKSFNRGEC | 0.93
2 | CE115HA000 S52cG (antibody, human IgG1, kappa, L234A L235A, N297A, name in Kabat numbering, one-arm antibody) heavy: QVQLVESGGGVVQPGRSLRLSCAASGFTFSNAWMHWVRQAPGKGLEWVAQIKAKGNNYATYYAESVKGRFTISRDDSKNSLYLQMNSLKTEDTAVYYCRYVHYGAYYGVDAWGQGTTVTVSSASTKGPSVFPLAPSSKSTSGGTAALGCLVKDYFPEPVTVSWNSGALTSGVHTFPAVLQSSGLYSLSSVVTVPSSSLGTQTYICNVNHKPSNTKVDKKVEPKSCDKTHTCPPCPAPEAAGGPSVFLFPPKPKDTLMISRTPEVTCVVVDVSHEDPEVKFNWYVDGVEVHNAKTKPREEQYASTYRVVSVLTVLHQDWLNGKEYKCKVSNKALPAPIEKTISKAKGQPREPQVYTLPPSRCELTKNQVSLSCAVKGFYPSDIAVEWESNGQPENNYKTTPPVLDSDGSFFLVSKLTVDKSRWQQGNVFSCSVMHEALHNHYTQKSLSLSPDYKDDDDK EPKSSDKTHTCPPCPAPELLGGPSVFLFPPKPKDTLMISRTPEVTCVVVDVSHEDPEVKFNWYVDGVEVHNAKTKPREEQYNSTYRVVSVLTVLHQDWLNGKEYKCKVSNKALPAPIEKTISKAKGQPREPQVCTLPPSRDELTKNQVSLWCLVKGFYPSDIAVEWESNGQPENNYKTTPPVLDSDGSFFLYSKLTVDKSRWQQGNVFSCSVMHEALHNRYTQKSLSLSP light: DIVMTQSPLSLPVTPGEPASISCRSSQSLVHSNRNTYLHWYQQKPGQAPRLLIYKVSNRFSGVPDRFSGSGSGTDFTLKISRVEAEDVGVYYCGQGTQVPYTFGQGTKLEIKRTVAAPSVFIFPPSDEQLKSGTASVVCLLNNFYPREAKVQWKVDNALQSGNSQESVTEQDSKDSTYSLSSTLTLSKADYEKHKVYACEVTHQGLSSPVTKSFNRGEC | 0.81
3 | CE115HA000 S52cK (antibody, human IgG1, kappa, L234A L235A, N297A, name in Kabat numbering, one-arm antibody) heavy: QVQLVESGGGVVQPGRSLRLSCAASGFTFSNAWMHWVRQAPGKGLEWVAQIKAKKNNYATYYAESVKGRFTISRDDSKNSLYLQMNSLKTEDTAVYYCRYVHYGAYYGVDAWGQGTTVTVSSASTKGPSVFPLAPSSKSTSGGTAALGCLVKDYFPEPVTVSWNSGALTSGVHTFPAVLQSSGLYSLSSVVTVPSSSLGTQTYICNVNHKPSNTKVDKKVEPKSCDKTHTCPPCPAPEAAGGPSVFLFPPKPKDTLMISRTPEVTCVVVDVSHEDPEVKFNWYVDGVEVHNAKTKPREEQYASTYRVVSVLTVLHQDWLNGKEYKCKVSNKALPAPIEKTISKAKGQPREPQVYTLPPSRCELTKNQVSLSCAVKGFYPSDIAVEWESNGQPENNYKTTPPVLDSDGSFFLVSKLTVDKSRWQQGNVFSCSVMHEALHNHYTQKSLSLSPDYKDDDDK EPKSSDKTHTCPPCPAPELLGGPSVFLFPPKPKDTLMISRTPEVTCVVVDVSHEDPEVKFNWYVDGVEVHNAKTKPREEQYNSTYRVVSVLTVLHQDWLNGKEYKCKVSNKALPAPIEKTISKAKGQPREPQVCTLPPSRDELTKNQVSLWCLVKGFYPSDIAVEWESNGQPENNYKTTPPVLDSDGSFFLYSKLTVDKSRWQQGNVFSCSVMHEALHNRYTQKSLSLSP light: DIVMTQSPLSLPVTPGEPASISCRSSQSLVHSNRNTYLHWYQQKPGQAPRLLIYKVSNRFSGVPDRFSGSGSGTDFTLKISRVEAEDVGVYYCGQGTQVPYTFGQGTKLEIKRTVAAPSVFIFPPSDEQLKSGTASVVCLLNNFYPREAKVQWKVDNALQSGNSQESVTEQDSKDSTYSLSSTLTLSKADYEKHKVYACEVTHQGLSSPVTKSFNRGEC | 0.86
4 | CE115HA000 S52cL (antibody, human IgG1, kappa, L234A L235A, N297A, name in Kabat numbering, one-arm antibody) heavy: QVQLVESGGGVVQPGRSLRLSCAASGFTFSNAWMHWVRQAPGKGLEWVAQIKAKLNNYATYYAESVKGRFTISRDDSKNSLYLQMNSLKTEDTAVYYCRYVHYGAYYGVDAWGQGTTVTVSSASTKGPSVFPLAPSSKSTSGGTAALGCLVKDYFPEPVTVSWNSGALTSGVHTFPAVLQSSGLYSLSSVVTVPSSSLGTQTYICNVNHKPSNTKVDKKVEPKSCDKTHTCPPCPAPEAAGGPSVFLFPPKPKDTLMISRTPEVTCVVVDVSHEDPEVKFNWYVDGVEVHNAKTKPREEQYASTYRVVSVLTVLHQDWLNGKEYKCKVSNKALPAPIEKTISKAKGQPREPQVYTLPPSRCELTKNQVSLSCAVKGFYPSDIAVEWESNGQPENNYKTTPPVLDSDGSFFLVSKLTVDKSRWQQGNVFSCSVMHEALHNHYTQKSLSLSPDYKDDDDK EPKSSDKTHTCPPCPAPELLGGPSVFLFPPKPKDTLMISRTPEVTCVVVDVSHEDPEVKFNWYVDGVEVHNAKTKPREEQYNSTYRVVSVLTVLHQDWLNGKEYKCKVSNKALPAPIEKTISKAKGQPREPQVCTLPPSRDELTKNQVSLWCLVKGFYPSDIAVEWESNGQPENNYKTTPPVLDSDGSFFLYSKLTVDKSRWQQGNVFSCSVMHEALHNRYTQKSLSLSP light: DIVMTQSPLSLPVTPGEPASISCRSSQSLVHSNRNTYLHWYQQKPGQAPRLLIYKVSNRFSGVPDRFSGSGSGTDFTLKISRVEAEDVGVYYCGQGTQVPYTFGQGTKLEIKRTVAAPSVFIFPPSDEQLKSGTASVVCLLNNFYPREAKVQWKVDNALQSGNSQESVTEQDSKDSTYSLSSTLTLSKADYEKHKVYACEVTHQGLSSPVTKSFNRGEC | 0.94
5 | CE115HA000 S52cQ (antibody, human IgG1, kappa, L234A L235A, N297A, name in Kabat numbering, one-arm antibody) heavy: QVQLVESGGGVVQPGRSLRLSCAASGFTFSNAWMHWVRQAPGKGLEWVAQIKAKQNNYATYYAESVKGRFTISRDDSKNSLYLQMNSLKTEDTAVYYCRYVHYGAYYGVDAWGQGTTVTVSSASTKGPSVFPLAPSSKSTSGGTAALGCLVKDYFPEPVTVSWNSGALTSGVHTFPAVLQSSGLYSLSSVVTVPSSSLGTQTYICNVNHKPSNTKVDKKVEPKSCDKTHTCPPCPAPEAAGGPSVFLFPPKPKDTLMISRTPEVTCVVVDVSHEDPEVKFNWYVDGVEVHNAKTKPREEQYASTYRVVSVLTVLHQDWLNGKEYKCKVSNKALPAPIEKTISKAKGQPREPQVYTLPPSRCELTKNQVSLSCAVKGFYPSDIAVEWESNGQPENNYKTTPPVLDSDGSFFLVSKLTVDKSRWQQGNVFSCSVMHEALHNHYTQKSLSLSPDYKDDDDK EPKSSDKTHTCPPCPAPELLGGPSVFLFPPKPKDTLMISRTPEVTCVVVDVSHEDPEVKFNWYVDGVEVHNAKTKPREEQYNSTYRVVSVLTVLHQDWLNGKEYKCKVSNKALPAPIEKTISKAKGQPREPQVCTLPPSRDELTKNQVSLWCLVKGFYPSDIAVEWESNGQPENNYKTTPPVLDSDGSFFLYSKLTVDKSRWQQGNVFSCSVMHEALHNRYTQKSLSLSP light: DIVMTQSPLSLPVTPGEPASISCRSSQSLVHSNRNTYLHWYQQKPGQAPRLLIYKVSNRFSGVPDRFSGSGSGTDFTLKISRVEAEDVGVYYCGQGTQVPYTFGQGTKLEIKRTVAAPSVFIFPPSDEQLKSGTASVVCLLNNFYPREAKVQWKVDNALQSGNSQESVTEQDSKDSTYSLSSTLTLSKADYEKHKVYACEVTHQGLSSPVTKSFNRGEC | 0.97
6 | CE115HA000 S52cV (antibody, human IgG1, kappa, L234A L235A, N297A, name in Kabat numbering, one-arm antibody) heavy: QVQLVESGGGVVQPGRSLRLSCAASGFTFSNAWMHWVRQAPGKGLEWVAQIKAKVNNYATYYAESVKGRFTISRDDSKNSLYLQMNSLKTEDTAVYYCRYVHYGAYYGVDAWGQGTTVTVSSASTKGPSVFPLAPSSKSTSGGTAALGCLVKDYFPEPVTVSWNSGALTSGVHTFPAVLQSSGLYSLSSVVTVPSSSLGTQTYICNVNHKPSNTKVDKKVEPKSCDKTHTCPPCPAPEAAGGPSVFLFPPKPKDTLMISRTPEVTCVVVDVSHEDPEVKFNWYVDGVEVHNAKTKPREEQYASTYRVVSVLTVLHQDWLNGKEYKCKVSNKALPAPIEKTISKAKGQPREPQVYTLPPSRCELTKNQVSLSCAVKGFYPSDIAVEWESNGQPENNYKTTPPVLDSDGSFFLVSKLTVDKSRWQQGNVFSCSVMHEALHNHYTQKSLSLSPDYKDDDDK EPKSSDKTHTCPPCPAPELLGGPSVFLFPPKPKDTLMISRTPEVTCVVVDVSHEDPEVKFNWYVDGVEVHNAKTKPREEQYNSTYRVVSVLTVLHQDWLNGKEYKCKVSNKALPAPIEKTISKAKGQPREPQVCTLPPSRDELTKNQVSLWCLVKGFYPSDIAVEWESNGQPENNYKTTPPVLDSDGSFFLYSKLTVDKSRWQQGNVFSCSVMHEALHNRYTQKSLSLSP light: DIVMTQSPLSLPVTPGEPASISCRSSQSLVHSNRNTYLHWYQQKPGQAPRLLIYKVSNRFSGVPDRFSGSGSGTDFTLKISRVEAEDVGVYYCGQGTQVPYTFGQGTKLEIKRTVAAPSVFIFPPSDEQLKSGTASVVCLLNNFYPREAKVQWKVDNALQSGNSQESVTEQDSKDSTYSLSSTLTLSKADYEKHKVYACEVTHQGLSSPVTKSFNRGEC | 0.82
